Source: patent publication US20180271973A1

Molecular target: CH505 transmitted/founder (T/F) Env gp120 (HIV-1)
Assay: surface plasmon resonance

“CH103 UCA (unmutated common ancestor of the CH103 CD4 binding site bnAb lineage) (antibody)” gave a Kd of 0.2 µM.
